Source: patent US20240294622A1 (SUZHOU TRANSCENTA THERAPEUTICS, published 2024)
Where a chain is given by its changes, count along the chain named. Blank lines part the entries; values can stand above or below the binder they belong to.

Key:
HGREM1-His (ACRO) [1] = molecular target: T1, HGREM1-His (ACRO) (human, UniProt O60565 25-184); experiment: ELISA, coated hGREM1 (ACRO)
T1 construct: Lys25-Asp184 of NP_037504 with C-terminal polyhistidine tag (ACRO GR1-H52H3); they are put here; also called hGREM1 (ACRO); human gremlin (ACRO)
T1 sequence: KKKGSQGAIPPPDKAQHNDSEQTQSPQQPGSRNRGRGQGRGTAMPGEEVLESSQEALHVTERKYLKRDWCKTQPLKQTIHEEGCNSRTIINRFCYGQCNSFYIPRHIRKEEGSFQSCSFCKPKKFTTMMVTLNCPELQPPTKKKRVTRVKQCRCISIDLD
Method: (§1) Clear polystyrene plates (BEAVER) were coated with 100 μl/well of a […] hGREM1 (ACRO) and mouse gremlin (R&D) in high pH coating buffer overnight at 4° C. Then the plates were washed once on an automatic plate washer using PBS+0.1% Tween 20 (Sigma). 100 μl of block solution consisting of PBS+1% BSA+1% normal goat serum+0.5% Tween 20 (Sigma) was added to each well and incubated at room temperature for 2 hours. Then 100 μl of antibodies in antibody dilution buffer containing PBS+1% BSA+1% normal goat serum+0.01% Tween 20 starting from 2 μg/ml and then serial dilutions were added to each well of the plate and incubated for 1 hours at room temperature. Afterward the plates were washed three times with 200 μl of PBS+0.1% Tween20 followed by adding 100 μl/well 1:10000 Goat anti mouse IgG-HRP (abcam), and incubate for 1 hour at room temperature. They were then washed 3× with PBS+0.1% Tween20. Finally, 100 µl/well of TMB (Pierce) was added to each well and after several minutes add 50 μl of stop solution to each well. The plates were read on a Multiscan FC microplate reader (Thermo Scientific) at […].

Mouse Gremlin-His (R&D) = molecular target: T2, Mouse Gremlin-His (R&D) (mouse, UniProt O70326 25-184); experiment: ELISA, coated mouse gremlin (R&D)
T2 construct: Lys25-Asp184 with 10xHis, R&D 956-GR; also called mouse gremlin (R&D); mGREM1
T2 sequence: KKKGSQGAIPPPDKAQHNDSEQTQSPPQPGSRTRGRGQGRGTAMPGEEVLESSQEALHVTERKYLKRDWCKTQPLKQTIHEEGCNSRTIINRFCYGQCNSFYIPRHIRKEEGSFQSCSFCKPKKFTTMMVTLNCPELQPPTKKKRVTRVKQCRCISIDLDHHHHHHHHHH
Method: as §1

HGREM1-His (ACRO) [2] = molecular target: T1, HGREM1-His (ACRO); experiment: ELISA, binding to hGremlin-his
DAN-his (Sinobiological) = molecular target: T3, DAN-his (Sinobiological) (human, UniProt P41271 17-181, limits assumed); experiment: ELISA on coated DAN-his; unit from the axis Ab(nM); panel called FIG. 19C in the text
T3 construct: also called DAN (Sinobiological); human DAN-his
T3 sequence (looked up): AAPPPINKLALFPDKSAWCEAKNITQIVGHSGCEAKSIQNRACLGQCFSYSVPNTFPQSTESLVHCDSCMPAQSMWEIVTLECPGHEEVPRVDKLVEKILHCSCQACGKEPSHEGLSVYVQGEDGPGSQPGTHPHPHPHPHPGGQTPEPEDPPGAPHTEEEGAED
Method: (§2) Clear polystyrene plates (BEAVER) were coated with 100 μl/well of a 0.5 μg/ml human gremlin (ACRO) and DAN (Sinobiological) in high pH coating buffer overnight at 4° C. Then the plates were washed once on an automatic plate washer using PBS+0.1% Tween 20 (Sigma). 100 μl of block solution consisting of PBS+1% BSA+1% normal goat serum+0.5% Tween 20 (Sigma) was added to each well and incubated at room temperature for 2 hours. Then 100 ul of antibodies (hybridoma or chimeric antibody 36F5, chimeric antibody 67G11, chimeric antibody 42B9) in antibody dilution buffer containing PBS+1% BSA+1% normal goat serum+0.01% Tween 20 starting from 2 μg/ml (13.33 nM) and then 4 fold serial dilution were added to each well of the plate and incubated for 1 hours at room temperature. Afterward the plates were washed three times with 200 ul of PBS+0.1% Tween20 followed by adding 100 μl/well 1:10000 Goat anti mouse IgG-HRP or mouse anti-human IgG-HRP (abcam), and incubate for 1 hour at room temperature. They were then washed 3× with PBS+0.1% Tween20. Finally, 100 μl/well of TMB (InnoReagents) was added to each well and after 2 minutes add 50 ul of stop solution to each well. The plates were read on a Multiscan FC microplate reader (Thermo Scientific) at 450 nm.

HGREM1-His (ACRO) [3] = molecular target: T1, HGREM1-His (ACRO); experiment: ELISA on coated human Gremlin-his; unit from the axis Ab(nM); panel called FIG. 19C in the text
Method: as §2

EC50 (HGREM1-His (ACRO) [1]): 0.0134 µg/mL | EC50 (Mouse Gremlin-His (R&D)): 0.0172 µg/mL
B1: 56C11 (antibody, V domains shown)
VH: EVQLQQSGPELVKPGASVKISCKASGYTFTDFYMNWVKQSHGKSLEWIGDINPNNGGTSYNQKFKGKATLTVDKSSSTAYMELRSLTSEDSAVYYCARDPIYYDYDEVAYWGQGTLVTVSA
VL: DVVMTQTPLSLPVSLGDQASISCRSSQSLVHSNGNTYLHWYLQKPGQSPKLLIYKVSNRFSGVPDRFSGSGSGTDFTLKISRVEAEDLGVYFCSQSTHVPLTFGAGTKLELK
notes: mouse hybridoma antibody; also called hybridoma 56C11

EC50 (HGREM1-His (ACRO) [2]): 0.006 µg/mL
B2: Hu14E3_HbLa (antibody, IgG1, V domains shown)
VH: QIQLVQSGSELKKPGASVKVSCKASGYTFTTYGMAWMRQAPGQGLEWMGWINTLSGEPTYADDFKGRFAFSLDTSVSTAYLQISSLKAEDTAVYYCAREPMDYWGQGTMVTVSS
VL: DVVMTQSPLSLPVTLGQPASISCKSSQSLLDSDGKTYLSWLQQRPGQSPRRLIYLVSKLDSGVPDRFSGSGSGTDFTLKISRVEAEDVGVYYCWQGAHFPLTFGQGTKLEIK
notes: humanized

EC50 (HGREM1-His (ACRO) [2]): 0.312 µg/mL
B3: Hu22F1_HcLa (antibody, V domains shown)
VH: QAQLVQSGAEVKKPGASVKVSCKASGYSFTDYYMNWVRQAPGQGLEWMGDINPKDGDSGYSHKFKGRVTLTVDKSTSTVYMELRSLRSEDTAVYYCASGFTTVVARGDYWGQGTTVTVSS
VL: B2 VL with S39N, A97T, L101Y, Q105G, L109V

EC50 (HGREM1-His (ACRO) [2]): 0.0061 µg/mL
B4: Hu14E3_HcLb (antibody, IgG1, V domains shown)
VH: B2 VH with Y27S, R38K, E46T
VL: B2 VL with Y54S
notes: humanized

EC50 (HGREM1-His (ACRO) [2]): 0.0435 µg/mL
B5: Hu22F1_HcLb (antibody, V domains shown)
VH: B3 VH
VL: B2 VL with S39N, V63F, A97T, L101Y, Q105G, L109V

EC50 (HGREM1-His (ACRO) [2]): 0.094 µg/mL
B6: Hu22F1_HbLb (antibody, V domains shown)
VH: B3 VH with A2V, L70M, R84S
VL: B2 VL with S39N, V63F, A97T, L101Y, Q105G, L109V

EC50 (HGREM1-His (ACRO) [2]): 0.0103 µg/mL
B7: Hu22F1_HdLb (antibody, V domains shown)
VH: B3 VH with V37L, M48I, V68A
VL: B2 VL with S39N, V63F, A97T, L101Y, Q105G, L109V

EC50 (HGREM1-His (ACRO) [2]): 0.117 µg/mL
B8: Hu22F1_HaLb (antibody, V domains shown)
VH: B3 VH with A2V, L70M, V72R, K74T, R84S
VL: B2 VL with S39N, V63F, A97T, L101Y, Q105G, L109V

EC50 (HGREM1-His (ACRO) [2]): 0.0056 µg/mL
B9: Hu14E3_HaLb (antibody, IgG1, V domains shown)
VH: B2 VH with I2V, A69V
VL: B2 VL with Y54S
notes: humanized

EC50 (HGREM1-His (ACRO) [2]): 1.17 µg/mL
B10: Hu22F1_HaLa (antibody, V domains shown)
VH: B3 VH with A2V, L70M, V72R, K74T, R84S
VL: B2 VL with S39N, A97T, L101Y, Q105G, L109V
notes: humanized 22F1 variant

EC50 (HGREM1-His (ACRO) [2]): 1.04 µg/mL
B11: Hu22F1_HbLa (antibody, V domains shown)
VH: B3 VH with A2V, L70M, R84S
VL: B2 VL with S39N, A97T, L101Y, Q105G, L109V

EC50 (HGREM1-His (ACRO) [2]): 0.0066 µg/mL
B12: Hu14E3_HcLa (antibody, IgG1, V domains shown)
VH: B2 VH with Y27S, R38K, E46T
VL: B2 VL
notes: humanized

EC50 (HGREM1-His (ACRO) [2]): 0.0062 µg/mL
B13: Hu14E3_HbLb (antibody, IgG1, V domains shown)
VH: B2 VH
VL: B2 VL with Y54S
notes: humanized

EC50 (HGREM1-His (ACRO) [2]): 0.0167 µg/mL
B14: Hu22F1_HdLa (antibody, V domains shown)
VH: B3 VH with V37L, M48I, V68A
VL: B2 VL with S39N, A97T, L101Y, Q105G, L109V

EC50 (DAN-his (Sinobiological)): 0.0203 nM | EC50 (HGREM1-His (ACRO) [3]): 0.0209 nM
B15: chimeric antibody 42B9 (antibody, human IgG1, V domains shown)
VH: QVQLQQSGAELARPGASVKLSCKASGYTFTSYGIGWVKQRTGQGLEWIGEIYPRSGNTYNNEKFKGKATLTADKSSRTVYMELRSLISEDSAVYFCAREGYSNNYYAMDYWGQGTSVTVFS
VL: DVLMTQTPLSLPVSLGDQASISCISSQSLVHSNGNTYLEWYLQKPGLSPKLLIYKVSNRFSGVPDRLSGSGSGTDFTLRISRVEAEDLGVYYCFQGSHVPFTFGSGTKLEIK

EC50 (DAN-his (Sinobiological)): 0.0178 nM | EC50 (HGREM1-His (ACRO) [3]): 0.019 nM
B16: chimeric antibody 67G11 (antibody, human IgG1, V domains shown)
VH: B15 VH
VL: B15 VL with I24R, L47Q, R79K
